Experimental data reported in patent publication US12589164.

Key:
[1] = tested on: peptide probe with CM HQSRAGPWGLL (SEQ ID NO: 645)
[2] = tested on: peptide probe with CM HQSRSGAWGLL (SEQ ID NO: 647)
[3] = tested on: peptide probe with CM HQSRSGPWGLA (SEQ ID NO: 650)
[4] = tested on: peptide probe with CM AQSRSGPWGLL (SEQ ID NO: 641)
[5] = tested on: (MCA)-His-Gln-Ser-Arg-Ser-Ala-Ile-Ala-Leu-X1-X2-Lys (DNP)-D-Arg (SEQ ID NO: 653) where X1 is Y and X2 is A
[6] = tested on: (MCA)-His-Gln-Ser-Arg-Ser-Gly-Pro-Trp-Gly-Leu-X1-Lys (DNP)-D-Arg (SEQ ID NO: 659) where X1 is absent
[7] = tested on: peptide probe with CM HQSRSAPWGLL (SEQ ID NO: 646)
[8] = tested on: (MCA)-His-Gln-Ser-Arg-Ser-Pro-Trp-Gly-Gly-Ser-Lys (DNP)-D-Arg (SEQ ID NO: 661)
[9] = tested on: peptide probe with CM HQARSGPWGLL (SEQ ID NO: 643)
[10] = tested on: (MCA)-Ser-Pro-Trp-Gly-Leu-His-Gln-Ser-Lys-Ser-Lys (DNP)-D-Arg (SEQ ID NO: 664)
[11] = tested on: peptide probe with CM HQSRSGPWALL (SEQ ID NO: 648)
[12] = tested on: peptide probe with CM HQSASGPWGLL (SEQ ID NO: 644)
[13] = tested on: (MCA)-His-Gln-Ser-Arg-Ser-Ala-Ile-Ala-Leu-X1-Gly-Lys (DNP)-D-Arg (SEQ ID NO: 654) where X1 is Y
[14] = tested on: peptide probe with CM HQSRSGPAGLL (SEQ ID NO: 639)
[15] = tested on: peptide probe with CM HQSRSGPWGAL (SEQ ID NO: 649)
[16] = tested on: D-Arg-Lys (DNP)-Ala-Ile-Ala-Leu-His-Gln-Ser-Arg-Ser-Lys (MCA)-D-Arg (SEQ ID NO: 658)
[17] = tested on: (MCA)-His-Gln-Ser-Arg-Pro-Trp-Gly-Leu-Gly-Ser-Lys (DNP)-D-Arg (SEQ ID NO: 660)
[18] = tested on: (MCA)-Ser-Pro-Trp-Gly-Leu-His-Gln-Ser-Arg-Gly-Lys (DNP)-D-Arg (SEQ ID NO: 663)
[19] = tested on: (MCA)-Ser-Pro-Trp-Gly-Leu-His-Gln-Ser-Arg-Ser-Lys (DNP)-D-Arg (SEQ ID NO: 657)
[20] = tested on: (MCA)-His-Gln-Ser-Arg-Ser-Ala-Ile-Ala-Leu-Gly-Ser-Lys (DNP)-D-Arg (SEQ ID NO: 655)
[21] = tested on: (MCA)-His-Gln-Ser-Arg-Ser-Pro-Trp-Gly-Leu-Gly-Lys (DNP)-D-Arg (SEQ ID NO: 665)
[22] = tested on: peptide probe with CM HASRSGPWGLL (SEQ ID NO: 642)

MMP9, sequence (chain, as listed by the source): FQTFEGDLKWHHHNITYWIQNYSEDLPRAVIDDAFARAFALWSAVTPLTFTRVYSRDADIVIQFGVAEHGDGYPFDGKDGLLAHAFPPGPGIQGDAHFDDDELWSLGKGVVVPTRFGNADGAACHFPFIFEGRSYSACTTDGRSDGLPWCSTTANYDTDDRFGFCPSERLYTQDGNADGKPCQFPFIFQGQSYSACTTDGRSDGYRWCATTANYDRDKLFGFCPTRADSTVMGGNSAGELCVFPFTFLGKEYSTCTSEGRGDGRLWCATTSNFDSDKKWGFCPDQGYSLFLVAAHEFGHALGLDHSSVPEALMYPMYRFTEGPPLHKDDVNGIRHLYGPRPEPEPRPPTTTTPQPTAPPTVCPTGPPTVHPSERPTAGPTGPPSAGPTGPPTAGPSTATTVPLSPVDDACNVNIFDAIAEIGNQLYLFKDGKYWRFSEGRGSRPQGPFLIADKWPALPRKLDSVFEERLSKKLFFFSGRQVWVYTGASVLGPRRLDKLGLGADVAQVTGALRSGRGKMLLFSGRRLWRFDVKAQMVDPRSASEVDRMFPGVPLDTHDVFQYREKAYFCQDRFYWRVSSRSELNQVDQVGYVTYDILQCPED

## MMP9
[1]
  Probe Cleavage (pM/s): 7440 pM/s
[2]
  Probe Cleavage (pM/s): 436 pM/s
[3]
  Probe Cleavage (pM/s): 6810 pM/s
[4]
  Probe Cleavage (pM/s): 7380 pM/s
[5]
  Probe Cleavage (pM/s): 255 pM/s
  Probe Cleavage Kcat/KM: 24000 M⁻¹ s⁻¹
[6]
  Probe Cleavage (pM/s): 705 pM/s
[7]
  Probe Cleavage (pM/s): 10700 pM/s
[8]
  Probe Cleavage (pM/s): 86.5 pM/s
[9]
  Probe Cleavage (pM/s): 7430 pM/s
[10]
  Probe Cleavage (pM/s): 19300 pM/s
[11]
  Probe Cleavage (pM/s): 7500 pM/s
[12]
  Probe Cleavage (pM/s): 5410 pM/s
[13]
  Probe Cleavage (pM/s): 328 pM/s
  Probe Cleavage Kcat/KM: 57000 M⁻¹ s⁻¹
[14]
  Probe Cleavage (pM/s): 13900 pM/s
[15]
  Probe Cleavage (pM/s): 5.9 pM/s
[16]
  Probe Cleavage (pM/s): 2550 pM/s
[17]
  Probe Cleavage (pM/s): 9600 pM/s
[18]
  Probe Cleavage (pM/s): 18600 pM/s
[19]
  Probe Cleavage (pM/s): 5150 pM/s
  Probe Cleavage Kcat/KM: 120000 M⁻¹ s⁻¹
[20]
  Probe Cleavage (pM/s): 41.9 pM/s
[21]
  Probe Cleavage (pM/s): 372 pM/s
  Probe Cleavage Kcat/KM: 11000 M⁻¹ s⁻¹
[22]
  Probe Cleavage (pM/s): 6470 pM/s
